Experimental findings from publication PMC11966780 are described below.

Holding throughout (test): label-free LC-MS/MS
For test [1], the target named is AAV-DJ capsid incorporating VP1 with a GFPnb inserted at position H631 (AAV-DJ | not stated).
In test [2] the target is AAV-DJ capsid incorporating VP3 with a GFPnb inserted at position H631 (AAV-DJ | not stated).
The target of test [3] is AAV-DJ capsid incorporating VP3 with the ALFAnb inserted at position H631 (AAV-DJ | not stated).

In test [1], “green fluorescent protein (GFP) (from UniProt P42212 1-238) (natural protein)” had a GFP/capsid, Rep1 of 0.89 GFP/capsid; a GFP/capsid, Rep2 of 0.73 GFP/capsid; a GFP/capsid, Rep3 of 0.33 GFP/capsid; a GFP/capsid, avg of 0.65 GFP/capsid.

For “GFP tagged with a c-Myc NLS at the C-terminus”, in test [2], the GFP/capsid (GFP-NLS per capsid) was 3 to 15; the GFP/capsid, Rep1 was 13.1 GFP/capsid; the GFP/capsid, Rep2 amounted to 2.17 GFP/capsid; the GFP/capsid, Rep3 turned out to be 1.35 GFP/capsid. Besides, in test [1], the GFP/capsid (GFP-NLS per capsid) fell in the range of 1 to 3; the GFP/capsid, Rep1 amounted to 0.89 GFP/capsid; the GFP/capsid, Rep2 worked out at 2.27 GFP/capsid; the GFP/capsid, Rep3 was 0.81 GFP/capsid. For the same substance, the GFP/capsid, avg in test [1] was 1.33 GFP/capsid.

In test [3], “GFP C-terminally tagged with a c-Myc NLS followed by the ALFA tag” had a GFP/capsid (GFP-NLS-ALFA proteins per capsid) of 1 to 9; a GFP/capsid, Rep1 of 8.63 GFP/capsid; a GFP/capsid, Rep3 of 0.3 GFP/capsid; a GFP/capsid, avg of 3.35 GFP/capsid.
